Measured values taken from article PMC3229523, “Identification of Lactoferricin B Intracellular Targets Using an Escherichia coli Proteome Chip” (PLoS ONE, 2011).
Ends that are not written are not given here. * marks the point of attachment. Biotin = O=C1N[C@H]2[C@H](CS[C@H]2CCCCC(=O)*)N1

How the values were obtained:
Assay in all cases: peptide or protein array; E. coli proteome chip: purified His-tagged proteins printed in duplicate on Fullmoon slides, blocked with 1% BSA; 10 nM N-terminal biotinylated LfcinB with 1% BSA, room temperature, 1 h; detected with DyLight 649-labeled streptavidin, ratio to DyLight 549-labeled anti-His antibody; ProCAT normalisation, local cut-off; triplicate chips
Conditions in all cases: both partners purified
YbgE = molecular target: T1, YbgE (E. coli K-12, UniProt P0AAV0 1-97)
T1 construct: YbgE, E. coli K-12
T1 sequence (looked up): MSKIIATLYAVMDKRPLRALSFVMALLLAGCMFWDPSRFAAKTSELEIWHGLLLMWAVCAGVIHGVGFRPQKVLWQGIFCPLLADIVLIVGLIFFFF

YbeY = molecular target: T2, YbeY (E. coli K-12, UniProt P0A898 1-155)
T2 construct: YbeY, E. coli K-12
T2 sequence (P0A898 whole entry): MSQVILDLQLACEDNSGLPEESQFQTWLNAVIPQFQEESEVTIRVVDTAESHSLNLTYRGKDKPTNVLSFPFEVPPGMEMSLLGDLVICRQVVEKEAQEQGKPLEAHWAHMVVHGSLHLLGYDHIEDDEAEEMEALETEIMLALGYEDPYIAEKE

YbeQ = molecular target: T3, YbeQ (E. coli K-12, UniProt P77234 1-325)
T3 construct: YbeQ, E. coli K-12
T3 sequence (looked up): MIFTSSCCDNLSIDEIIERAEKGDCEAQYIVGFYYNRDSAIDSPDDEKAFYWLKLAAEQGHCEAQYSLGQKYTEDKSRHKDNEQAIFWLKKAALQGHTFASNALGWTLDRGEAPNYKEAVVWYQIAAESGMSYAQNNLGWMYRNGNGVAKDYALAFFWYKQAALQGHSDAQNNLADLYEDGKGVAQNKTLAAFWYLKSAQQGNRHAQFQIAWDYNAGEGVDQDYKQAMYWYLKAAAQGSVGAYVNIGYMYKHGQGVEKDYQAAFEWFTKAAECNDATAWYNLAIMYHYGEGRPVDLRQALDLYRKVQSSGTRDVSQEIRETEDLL

DnaT = molecular target: T4, DnaT (E. coli K-12, UniProt P0A8J2 1-179)
T4 construct: DnaT, E. coli K-12
T4 sequence (looked up): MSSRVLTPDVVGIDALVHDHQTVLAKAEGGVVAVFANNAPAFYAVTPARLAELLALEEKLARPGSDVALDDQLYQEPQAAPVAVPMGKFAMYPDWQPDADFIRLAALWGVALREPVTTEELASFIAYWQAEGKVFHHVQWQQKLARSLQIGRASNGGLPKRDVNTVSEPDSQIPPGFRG

AceK = molecular target: T5, AceK (E. coli K-12, UniProt P11071 1-578)
T5 construct: AceK, E. coli K-12
T5 sequence (looked up): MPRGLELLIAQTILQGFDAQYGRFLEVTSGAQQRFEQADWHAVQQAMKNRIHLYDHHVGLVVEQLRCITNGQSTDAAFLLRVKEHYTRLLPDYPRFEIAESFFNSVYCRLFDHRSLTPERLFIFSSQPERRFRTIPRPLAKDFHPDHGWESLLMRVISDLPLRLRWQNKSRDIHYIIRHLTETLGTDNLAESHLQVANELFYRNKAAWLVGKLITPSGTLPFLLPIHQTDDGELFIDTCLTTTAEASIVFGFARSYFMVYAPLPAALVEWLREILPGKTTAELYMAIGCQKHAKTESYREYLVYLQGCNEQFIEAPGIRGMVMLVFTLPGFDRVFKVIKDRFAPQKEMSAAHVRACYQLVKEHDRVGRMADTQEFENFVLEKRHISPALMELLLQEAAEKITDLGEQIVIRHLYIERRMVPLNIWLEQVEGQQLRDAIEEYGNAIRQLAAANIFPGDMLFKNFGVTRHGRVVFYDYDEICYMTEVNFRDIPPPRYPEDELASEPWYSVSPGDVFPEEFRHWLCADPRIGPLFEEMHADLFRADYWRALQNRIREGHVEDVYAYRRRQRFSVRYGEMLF

YqiA = molecular target: T6, YqiA (E. coli K-12, UniProt P0A8Z7 1-193)
T6 construct: YqiA, E. coli K-12
T6 sequence (P0A8Z7 whole entry): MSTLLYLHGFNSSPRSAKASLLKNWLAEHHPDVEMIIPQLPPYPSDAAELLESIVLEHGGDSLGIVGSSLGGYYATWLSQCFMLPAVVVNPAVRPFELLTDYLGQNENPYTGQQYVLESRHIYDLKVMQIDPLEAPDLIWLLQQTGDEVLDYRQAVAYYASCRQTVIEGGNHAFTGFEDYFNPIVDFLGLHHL

YjhI = molecular target: T7, YjhI (E. coli K-12, UniProt P39360 1-262)
T7 construct: YjhI, E. coli K-12
T7 sequence (looked up): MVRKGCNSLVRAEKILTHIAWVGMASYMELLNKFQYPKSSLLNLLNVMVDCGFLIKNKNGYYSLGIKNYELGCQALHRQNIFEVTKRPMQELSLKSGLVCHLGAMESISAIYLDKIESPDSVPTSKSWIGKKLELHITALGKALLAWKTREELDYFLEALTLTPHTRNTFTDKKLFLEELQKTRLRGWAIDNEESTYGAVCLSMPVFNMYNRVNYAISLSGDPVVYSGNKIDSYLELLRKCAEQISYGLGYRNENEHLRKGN

Measured: binding result

B1: N-terminal biotinylated Lactoferricin B (peptide, UniProt P24627 36-60, looked up)
peptide: Biotin-FKCRRWQWRMKKLGAPSITCVRRAF
modifications: ends and bridges not checked
notes: lactoferricin B (LfcinB), cationic antimicrobial peptide of 25 amino acids; also called biotinylated LfcinB; biotin-labeled LfcinB; source: bought: Kelowna Inc
binds: all assays above
